What was measured:
[1] = target: photosystem I (PSI) core from H. hongdechloris grown under far-red light, one monomer of the trimer (Halomicronema hongdechloris); assay: cryo-EM structure; single particle analysis of PSI trimers purified whole from thylakoid membranes; 50 mM MES (pH 6.0), 5 mM CaCl2, 0.2-2.0% sucrose, 0.01% β-DDM; grids washed without sucrose and β-DDM; 2.35 Å (white PSI) and 2.41 Å (far-red PSI)
[2] = target: photosystem I (PSI) core from H. hongdechloris grown under white light, one monomer of the trimer (Halomicronema hongdechloris); assay: as above

With “photosystem I (PSI) core from H. hongdechloris grown under far-red light, one monomer of the trimer (from UniProt A0A1Z3HPE3 1-81; A0A1Z3HHI7 1-142; A0A1Z3HI16 1-68; A0A1Z3HR36 1-96) (complex)” the stoichiometry N [1] was 3.
Substance “photosystem I (PSI) core from H. hongdechloris grown under white light, one monomer of the trimer (from UniProt A0A1Z3HPE3 1-81; A0A1Z3HHI7 1-142; A0A1Z3HI16 1-68) (complex)” has a stoichiometry N [2] of 3.

Source: article PMC6957486
